B1: IRX6 (parent)
chain: YPCLEKPRIWSLAHTATASAVEGA
B2: ZNF8 (parent)
chain: KPYTCSVCGKSFSRTTCLFLHLRT

Variants of: B1
Experiment: protein stability index of a GFP-peptide fusion (GPS, HEK-293T) (PSI 1-6); higher = more stable
Details: c terminus: a fixed tail appended
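Note: lentivirally expressed fusions sorted by FACS into six bins by GFP to DsRed ratio, PSI derived from sequencing read proportions per bin multiplied by bin number.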

Protein stability index: each site, then its substitutions
E5: K 2.92 | L 3.24 | V 4.3 | R 3.21 | P 2.63 | T 3.97 | N 2.34 | Q 3.22 | F 3.7 | A 1.95 | H 2.37 | G 3.15 | C 3.7 | S 2.98 | D 2.81 | W 1.9 | Y 2.68
P7: Q 2.32 | Y 2.59 | T 3.24 | M 2.92 | E 2.27 | H 2.44 | D 4.03 | K 3.5 | G 2.84 | V 1.89 | A 3.29 | C 2.69
K6: M 2.41 | N 1.48 | S 3.68 | I 1.59 | G 2.34 | P 2.1 | W 2.69 | L 1.2 | V 2.61 | H 1.79 | R 1.88 | F 2.54
Y1: V 3.89 | C 2.82 | G 3.53 | E 4.33 | L 3.59 | P 4.08 | H 2.54 | K 3.73 | N 3.84 | R 3.33 | S 3.81 | T 3.36 | M 3.83 | Q 3.79 | I 2.88 | D 3.84 | W 2.82 | F 1.86 | A 4.1
P2: D 2.28 | K 2.82 | Q 2.98 | I 2.96 | N 4.81 | H 2.9 | R 2.37 | G 3.7 | L 1.88 | Y 2.69 | F 2.41 | A 2.82 | T 3.4 | S 1.7 | V 2.51 | W 3.12 | M 3.06 | E 2.29
L4: A 4.55 | E 2.64 | F 2.58 | Q 1.49 | S 1.81 | K 2.37 | W 2.68 | V 2.07 | T 3.03 | M 4.4 | I 2.46 | P 2.5 | Y 2.53
R8: I 2.87 | M 2.79 | L 3.04 | C 3.13 | F 2.49 | D 3.96 | E 2.22 | H 1.83
C3: V 1.66 | P 2.12 | L 1.86 | R 2.76 | W 1.68 | Q 2.14 | T 2.85 | N 1.37 | F 3.06 | M 2.28 | D 1.58 | H 2.16 | G 2.91 | E 1.85 | I 1.74 | K 3.76 | A 1.96 | Y 1.54 | S 2.46

Variants of: B2
Experiment: as above
Details: c terminus: a fixed tail appended

Protein stability index of substitutions, site by site:
T24: W 2.5 | R 2.04 | I 1.52 | L 1.58 | A 1.96 | E 1.67 | N 2.35 | C 2.07 | H 2.96 | F 2.02 | V 2.2 | Q 1.9 | Y 1.68 | G 2.37 | M 2.44 | D 2.12 | P 2.19 | S 1.89 | K 2.29
T16: E 2.25 | A 2.16 | R 1.82 | F 1.39 | G 2.6 | V 1.68 | L 1.79 | N 2.73 | D 2.27 | W 2.19 | H 2.36 | P 2.67 | K 1.56 | S 2.17 | I 2.44 | Q 2.73 | M 1.98 | Y 2.03 | C 1.94
T15: E 2.64 | Y 2.31 | K 2.39 | L 2.29 | N 2.02 | I 2.62 | S 2.4 | R 2.58 | G 1.54 | W 2.1 | D 2.9 | V 2.44 | C 2.49 | H 1.83 | A 2.45 | P 2.47 | F 2.9 | Q 2.61 | M 2.73
R23: K 2.06 | D 1.91 | W 1.75 | Q 2.59 | N 1.75 | M 2.23 | H 2.32 | C 2.06 | S 1.83 | V 2 | Y 1.84 | E 2.26 | I 2.05 | L 1.65 | T 1.95 | F 1.64 | A 2.29 | P 2.5 | G 1.9
R14: S 3.13 | P 2.45 | I 2.66 | V 3.3 | W 1.66 | H 2.3 | M 1.68 | F 1.6 | N 3.12 | L 1.65 | Y 1.93 | A 2.39 | K 2.12 | T 3.19 | C 3.41 | E 2.7 | Q 3.25 | G 1.89 | D 3.85
F19: E 2.57 | V 1.9 | M 2.35 | P 2.45 | I 1.91 | T 1.78 | S 2.03 | Q 2.54 | N 2.36 | K 1.93 | W 1.57 | L 1.73 | H 2.26 | G 1.93 | Y 2.44 | A 1.98 | C 3.11 | D 2.79 | R 2.35
C17: Y 2.15 | N 1.96 | S 1.84 | R 2.35 | I 2.14 | L 2.39 | W 1.5 | F 1.92 | T 2.42 | D 3.67 | K 2.35 | G 2.22 | M 2.13 | Q 2.58 | A 2.19 | H 2.04 | E 3.61 | P 1.91 | V 1.85
L20: I 1.99 | M 1.74 | N 2.56 | S 2.17 | K 2.32 | P 2.27 | A 2.66 | H 2.79 | Q 2.96 | C 2.63 | E 3.07 | Y 1.94 | R 2.42 | G 2.1 | D 2.11 | F 2.14 | W 1.39 | T 2.65
L22: Y 1.8 | W 1.74 | T 2.1 | E 2.31 | H 1.81 | K 2.74 | I 1.96 | D 2.04 | N 2.57 | G 2.03 | C 2.24 | R 2.34 | S 2.11 | V 1.85 | P 2.78 | A 2.08 | M 3.01 | F 1.82
L18: N 2.49 | D 2.2 | W 2.18 | R 1.67 | K 2.9 | H 1.96 | V 2.27 | Y 2.43 | C 2.31 | A 2.19 | G 2.44 | I 2.49 | E 2.45 | S 1.89 | Q 2.11 | F 1.95 | T 2.27 | P 2.32 | M 2.33
H21: F 1.65 | C 2.37 | I 1.59 | P 2.01 | T 1.56 | S 2.04 | Q 2.28 | E 2.31 | D 1.35 | R 1.4 | M 2.16 | V 1.8 | G 1.94 | A 2.18 | K 2.04 | W 1.75 | L 2.39 | Y 1.57 | N 1.6
S13: T 1.86 | V 2.15 | Q 2.38 | Y 1.75 | W 1.87 | M 1.88 | N 1.76 | P 2.16 | R 2
